The target in the experiment is T1, Sulfolobus solfataricus PolB1, unlabelled (Sulfolobus solfataricus, UniProt P26811 1-882).
T1 sequence (looked up): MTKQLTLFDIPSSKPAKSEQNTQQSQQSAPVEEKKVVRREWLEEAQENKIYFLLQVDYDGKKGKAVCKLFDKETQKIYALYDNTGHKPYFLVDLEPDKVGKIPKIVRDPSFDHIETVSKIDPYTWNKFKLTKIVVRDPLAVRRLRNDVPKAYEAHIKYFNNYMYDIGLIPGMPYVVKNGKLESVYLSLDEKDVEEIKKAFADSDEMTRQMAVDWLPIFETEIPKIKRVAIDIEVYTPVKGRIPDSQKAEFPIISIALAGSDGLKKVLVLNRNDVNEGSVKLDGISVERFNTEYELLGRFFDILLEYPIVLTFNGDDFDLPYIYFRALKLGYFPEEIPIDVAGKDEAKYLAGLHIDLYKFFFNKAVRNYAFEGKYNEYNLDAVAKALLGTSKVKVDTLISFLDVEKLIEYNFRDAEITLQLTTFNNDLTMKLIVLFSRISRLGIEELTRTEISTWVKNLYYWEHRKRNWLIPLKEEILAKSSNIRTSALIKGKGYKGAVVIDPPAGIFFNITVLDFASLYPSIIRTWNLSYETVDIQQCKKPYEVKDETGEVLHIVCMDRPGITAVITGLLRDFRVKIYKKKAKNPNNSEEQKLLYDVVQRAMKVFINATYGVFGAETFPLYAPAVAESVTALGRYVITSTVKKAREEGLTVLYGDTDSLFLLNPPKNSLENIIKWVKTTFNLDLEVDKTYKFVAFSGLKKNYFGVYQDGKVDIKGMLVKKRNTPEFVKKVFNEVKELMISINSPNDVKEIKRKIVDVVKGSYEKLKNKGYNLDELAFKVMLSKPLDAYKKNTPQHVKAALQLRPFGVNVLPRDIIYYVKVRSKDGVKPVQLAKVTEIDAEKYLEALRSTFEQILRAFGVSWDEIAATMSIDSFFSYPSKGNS
Nature of the experiment: SEC.

The values that follow come from publication PMC5737361 (Nucleic Acids Research, 2017).

B1: Sulfolobus solfataricus Dpo4 (PolY), wild type, unlabelled (enzyme)
chain: MIVLFVDFDYFYAQVEEVLNPSLKGKPVVVCVFSGRFEDSGAVATANYEARKFGVKAGIPIVEAKKILPNAVYLPMRKEVYQQVSSRIMNLLREYSEKIEIASIDEAYLDISDKVRDYREAYNLGLEIKNKILEKEKITVTVGISKNKVFAKIAADMAKPNGIKVIDDEEVKRLIRELDIADVPGIGNITAEKLKKLGINKLVDTLSIEFDKLKGMIGEAKAKYLISLARDEYNEPIRTRVRKSIGRIVTMKRNSRNLEEIKPYLFRAIEESYYKLDKRIPKAIHVVAVTEDLDIVSRGRTFPHGISKETAYSESVKLLQKILEEDERKIRRIGVRFSKFIEAIGLDKFFDT
On to B1, for which the binding result is given as “binds”.
